For orientation: Kd means the concentration at which binding is half-saturated.

One data set concerns the target T1, BANP BEN domain (human, UniProt Q8N9N5 208-347).
T1 sequence: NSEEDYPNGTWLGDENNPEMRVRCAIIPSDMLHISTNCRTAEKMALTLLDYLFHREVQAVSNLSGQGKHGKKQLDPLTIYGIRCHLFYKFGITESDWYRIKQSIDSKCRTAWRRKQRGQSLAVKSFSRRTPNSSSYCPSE
Nature of the data set: ITC; ITC: 150 mM NaCl, 20 mM Tris-HCl pH 7.5, with or without DTT, 25 C, 50-90 uM protein in cell, 1 mM DNA in syringe; FP: 20 mM Tris-HCl pH 7.5, 150 mM NaCl, 1 mM. As to conditions: protein: recombinant, tags: His6-SUMO removed by TEV, blunt. On the technique in general: Isothermal titration calorimetry measures the heat released or taken up as one component is titrated into another.

In the next data set the target is T2, BEND6 BEN domain (human, UniProt Q5SZJ8 170-271).
T2 sequence: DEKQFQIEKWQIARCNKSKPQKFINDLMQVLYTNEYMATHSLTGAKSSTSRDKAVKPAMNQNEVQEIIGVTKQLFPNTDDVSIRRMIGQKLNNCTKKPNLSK
As to the kind of experiment: fluorescence polarization; ITC: 150 mM NaCl, 20 mM Tris-HCl pH 7.5, with or without DTT, 25 C, 50-90 uM protein in cell, 1 mM DNA in syringe; FP: 20 mM Tris-HCl pH 7.5, 150 mM NaCl, 1 mM. The settings on record: protein: recombinant, tags: His6 (pET28-MHL) removed by TEV, label: 5' FAM.

B1: CGmCG DNA (dsDNA)
DNA 1: CTCTCGCGAGAG
DNA 2: CTCTCGCGAGAG
modifications: 5-methylcytosine at C7 of both strands
As to B1, in the data set with BANP BEN domain (self-complementary), the Kd worked out at 7.6 ± 0.3 µM.

B2: FAM-CGCG DNA (dsDNA)
DNA 1: CTCTCGCGAGAG
DNA 2: CTCTCGCGAGAG
For B2, in the data set with BEND6 BEN domain (blunt, self-complementary), the Kd was approximately 33 µM.

B3: TCTCG to caaca (dsDNA)
DNA 1: GCAAACAACATA
DNA 2: TATGTTGTTTGC
For B3, in the data set with BANP BEN domain, the Kd amounted to 5.4 ± 0.4 µM.

B4: FAM methylated CGCG DNA (dsDNA)
DNA 1: CTCTCGCGAGAG
DNA 2: CTCTCGCGAGAG
modifications: 5-methylcytosine, position not given
Turning to B4, the Kd with BEND6 BEN domain was approximately 39 µM.

B5: CTCacgcgAGAG (dsDNA)
DNA 1: CTCACGCGAGAG
DNA 2: CTCTCGCGTGAG
B5: in the data set with BANP BEN domain, the Kd amounted to 14.3 ± 2.6 µM.

B6: PBM motif DNA AAATCTCG (dsDNA)
DNA 1: GCAAATCTCGTA
DNA 2: TACGAGATTTGC
In the case of B6, the Kd with BANP BEN domain is 1 ± 0.1 µM.

B7: CTCtggcgAGAG (dsDNA)
DNA 1: CTCTGGCGAGAG
DNA 2: CTCTCGCCAGAG
Turning to B7, the Kd with BANP BEN domain amounted to 14.8 ± 2.3 µM.

B8: AAA and TCTCG both mutated (dsDNA)
DNA 1: GCCAGCAACATA
DNA 2: TATGTTGCTGGC
On to B8, for which, in the data set with BANP BEN domain, the Kd was 15.1 ± 1.9 µM.

B9: CGCG DNA (dsDNA)
DNA 1: CTCTCGCGAGAG
DNA 2: CTCTCGCGAGAG
Take B9: the Kd in the data set with BANP BEN domain (self-complementary) amounted to 8.4 ± 0.7 µM.

B10: TCTCG to TCGCG (dsDNA)
DNA 1: GCAAATCGCGTA
DNA 2: TACGCGATTTGC
As to B10, the Kd with BANP BEN domain worked out at 1.5 ± 0.2 µM.

B11: AAA to ggg (dsDNA)
DNA 1: GCGGGTCTCGTA
DNA 2: TACGAGACCCGC
For B11, the Kd with BANP BEN domain was 4.3 ± 0.3 µM.

B12: AAA to cag (dsDNA)
DNA 1: GCCAGTCTCGTA
DNA 2: TACGAGACTGGC
Consider B12, for which, in the data set with BANP BEN domain, the Kd was determined as 2.9 ± 0.3 µM.

B13: CTCgagcgAGAG (dsDNA)
DNA 1: CTCGAGCGAGAG
DNA 2: CTCTCGCTCGAG
Consider B13, for which the Kd with BANP BEN domain turned out to be 14.1 ± 3 µM.

The values above are taken from paper PMC10206803, “Structural insights into DNA recognition by the BEN domain of the transcription factor BANP”.
